Experimental data: PMC5876120 (2019)

B1: contactin-2 ECD (protein)
chain: SQTTFGPVFEDQPLSVLFPEESTEEQVLLACRARASPPATYRWKMNGTEMKLEPGSRHQLVGGNLVIMNPTKAQDAGVYQCLASNPVGTVVSREAILRFGFLQEFSKEERDPVKAHEGWGVMLPCNPPAHYPGLSYRWLLNEFPNFIPTDGRHFVSQTTGNLYIARTNASDLGNYSCLATSHMDFSTKSVFSKFAQLNLAAEDTRLFAPSIKARFPAETYALVGQQVTLECFAFGNPVPRIKWRKVDGSLSPQWTTAEPTLQIPSVSFEDEGTYECEAENSKGRDTVQGRIIVQAQPEWLKVISDTEADIGSNLRWGCAAAGKPRPTVRWLRNGEPLASQNRVEVLAGDLRFSKLSLEDSGMYQCVAENKHGTIYASAELAVQALAPDFRLNPVRRLIPAARGGEILIPCQPRAAPKAVVLWSKGTEILVNSSRVTVTPDGTLIIRNISRSDEGKYTCFAENFMGKANSTGILSVRDATKITLAPSSADINLGDNLTLQCHASHDPTMDLTFTWTLDDFPIDFDKPGGHYRRTNVKETIGDLTILNAQLRHGGKYTCMAQTVVDSASKEATVLVRGPPGPPGGVVVRDIGDTTIQLSWSRGFDNHSPIAKYTLQARTPPAGKWKQVRTNPANIEGNAETAQVLGLTPWMDYEFRVIASNILGTGEPSGPSSKIRTREAAPSVAPSGLSGGGGAPGELIVNWTPMSREYQNGDGFGYLLSFRRQGSTHWQTARVPGADAQYFVYSNESVRPYTPFEVKIRSYNRRGDGPESLTALVYSAEEEPRVAPTKVWAKGVSSSEMNVTWEPVQQDMNGILLGYEIRYWKAGDKEAAADRVRTAGLDTSARVSGLHPNTKYHVTVRAYNRAGTGPASPSANATTMKPPPRRPPGNISWTFSSSSLSIKWDPVVPFRNESAVTGYKMLYQNDLHLTPTLHLTGKNWIEIPVPEDIGHALVQIRTTGPGGDGIPAEVHIVRNGGTSMMVEN
B2: Caspr2 ECD (protein)
chain: APSTSQKCDEPLVSGLPHVAFSSSSSISGSYSPGYAKINKRGGAGGWSPSDSDHYQWLQVDFGNRKQISAIATQGRYSSSDWVTQYRMLYSDTGRNWKPYHQDGNIWAFPGNINSDGVVRHELQHPIIARYVRIVPLDWNGEGRIGLRIEVYGCSYWADVINFDGHVVLPYRFRNKKMKTLKDVIALNFKTSESEGVILHGEGQQGDYITLELKKAKLVLSLNLGSNQLGPIYGHTSVMTGSLLDDHHWHSVVIERQGRSINLTLDRSMQHFRTNGEFDYLDLDYEITFGGIPFSGKPSSSSRKNFKGCMESINYNGVNITDLARRKKLEPSNVGNLSFSCVEPYTVPVFFNATSYLEVPGRLNQDLFSVSFQFRTWNPNGLLVFSHFADNLGNVEIDLTESKVGVHINITQTKMSQIDISSGSGLNDGQWHEVRFLAKENFAILTIDGDEASAVRTNSPLQVKTGEKYFFGGFLNQMNNSSHSVLQPSFQGCMQLIQVDDQLVNLYEVAQRKPGSFANVSIDMCAIIDRCVPNHCEHGGKCSQTWDSFKCTCDETGYSGATCHNSIYEPSCEAYKHLGQTSNYYWIDPDGSGPLGPLKVYCNMTEDKVWTIVSHDLQMQTPVVGYNPEKYSVTQLVYSASMDQISAITDSAEYCEQYVSYFCKMSRLLNTPDGSPYTWWVGKANEKHYYWGGSGPGIQKCACGIERNCTDPKYYCNCDADYKQWRKDAGFLSYKDHLPVSQVVVGDTDRQGSEAKLSVGPLRCQGDRNYWNAASFPNPSSYLHFSTFQGETSADISFYFKTLTPWGVFLENMGKEDFIKLELKSATEVSFSFDVGNGPVEIVVRSPTPLNDDQWHRVTAERNVKQASLQVDRLPQQIRKAPTEGHTRLELYSQLFVGGAGGQQGFLGCIRSLRMNGVTLDLEERAKVTSGFISGCSGHCTSYGTNCENGGKCLERYHGYSCDCSNTAYDGTFCNKDVGAFFEEGMWLRYNFQAPATNARDSSSRVDNAPDQQNSHPDLAQEEIRFSFSTTKAPCILLYISSFTTDFLAVLVKPTGSLQIRYNLGGTREPYNIDVDHRNMANGQPHSVNITRHEKTIFLKLDHYPSVSYHLPSSSDTLFNSPKSLFLGKVIETGKIDQEIHKYNTPGFTGCLSRVQFNQIAPLKAALRQTNASAHVHIQGELVESNCGASPLTLSPMSSATDPWHLDHLDSASADFPYNPGQGQAIRNGVNRNSA

How the values were obtained:
[1] = target: B2; test: solid phase binding assay
[2] = target: B1; test: solid phase binding assay

Kd [1] [nM] | Kd [2] [nM] | Binder
15 |  | B1
 | 12 | B2
